The supplement of paper PMC11780869

System: Bacillus subtilis
Test: cleaved RNA product abundance (RNA/gDNA barcode ratio) relative to median wild-type variant (ratio to wild type); higher = more accumulation of the downstream cleavage product
Details: cleavage site: cggR-gapA (positions -7 to +36 mutated)
How it was run: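 Oligos with a 9% error rate were used to build barcoded, mutagenized RNase Y cleavage-site windows within truncated aprE or tetM reporter mRNAs, which were integrated into the B. subtilis chromosome. Cultures were grown in LB at 37°C between OD600 0.0003 and 0.3. Cleaved RNA was gel-selected, reverse transcribed and barcode-sequenced, as were genomic DNA barcodes, and UMIs were collapsed. Cleaved product abundance is the scaled RNA:gDNA barcode ratio, with the median construct carrying the unmutated site as reference.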

[1] = experiment (reporter, strain, medium): exp 2b: truncated aprE reporter, strain BJT200
[2] = experiment (reporter, strain, medium): exp 4a: truncated aprE reporter, strain BJT201 with 2% xylose (RNase J1 expressed)
[3] = experiment (reporter, strain, medium): exp 6: tetM reporter, strain 168

Sequence	cleaved RNA product abundance [1]	cleaved RNA product abundance [2]	cleaved RNA product abundance [3]
ACAGACGAAGGAGCCGCAAAGTAGTTATTAAGGGATGAATATTCCCTCAATATAAATATCTCTCACTTATTTAAA	0.716		
ACAGACGAAGGAGCCGCAAAGTAGTTATTAAGGGATGGATAATCCCTCAATATAAATATCTCTCACTTATTTAAA		0.537	
ACAGACGAAGGAGCCGCAAAGTAGTTATTAAGGGATTAATAATCCCTCAATATAAATATCTCTCACTTATTTAAA		1.14	
ACAGACGAAGGAGCCGCAAAGTAGTTATTAAGGGTTGAATAATCCCTCAATATAAATATCTCTCACTTATTTAAA		0.364	
ACAGACGAAGGAGCCGCAAAGTAGTTATTAAGGTATGAATAATCCCTCAATATAAATATCTCTCACTTATTTAAA		0.0907	
ACAGACGAAGGAGCCGCAAAGTAGTTATTAAGTGATGAATAATCCCTCAATATAAATATCTCTCACTTATTTAAA	0.106	0.116	
ACAGACGAAGGAGCCGCAAAGTAGTTATTAATGGATGAATAATCCCTCAATATAAATATCTCTCACTTATTTAAA	0.0916	0.166	
ACAGACGAAGGAGCCGCAAAGTAGTTATTATGGGATGAATAATCCCTCAATATAAATATCTCTCACTTATTTAAA		0.445	
ACAGACGAAGGAGCCGCAAAGTAGTTATTTAGGGATGAATAATCCCTCAATATAAATATCTCTCACTTATTTAAA	0.726	0.869	
ACAGACGAAGGAGCCGCAAAGTAGTTCTTAAGGGATGAATAATCCCTCAATATAAATATCTCTCACTTATTTAAA		0.195	
ACAGACGAAGGAGCCGCAAAGTAGTTTTTAAGGGATGAATAATCCCTCAATATAAATATCTCTCACTTATTTAAA		0.37	
ACAGACGAAGGAGCCGCAAAGTATTTATTAAGGGATGAATAATCCCTCAATATAAATATCTCTCACTTATTTAAA	0.85	0.594	
ACAGACGAAGGAGCCGCAAAGTCGTTATTAAGGGATGAATAATCCCTCAATATAAATATCTCTCACTTATTTAAA		0.9	
ACAGACGAAGGAGCCGCAAATAAATAATTAAGGGATGAATAATCCCTCAATATAAATATCTCTCACTTATTTAAA		0.336	
ACAGACGAAGGAGCCGCAAATAAATTATTAAGGAATGAATAATCCCTCAATATAAATATCTCTCACTTATTTAAA		0.195	
ACAGACGAAGGAGCCGCAAATAAATTATTAAGGGAAGAATAATCCCTCAATATAAATATCTCTCACTTATTTAAA		0.369	
ACAGACGAAGGAGCCGCAAATAAATTATTAAGGGATGAATAATACCTCAATATAAATATCTCTCACTTATTTAAA		0.0858	
ACAGACGAAGGAGCCGCAAATAAATTATTAAGGGATGAATAATCCCCCAATATAAATATCTCTCACTTATTTAAA		0.381	
ACAGACGAAGGAGCCGCAAATAAATTATTAAGGGATGAATAATCCCTCAACATAAATATCTCTCACTTATTTAAA		0.396	
ACAGACGAAGGAGCCGCAAATAAATTATTAAGGGATGAATAATCCCTCAATATAAATATCTCTCACTTATTTAAA	0.807	0.801	

Sequence	cleaved RNA product abundance [1]	cleaved RNA product abundance [2]	cleaved RNA product abundance [3]
ACAGACGAAGGAGCCGCAAATAAATTATTAAGGGATGAATATTCCCTCAATATAAATATCTCTCACTTATTTAAA		0.421	
ACAGACGAAGGAGCCGCAAATAACTTATTAAGGGATGAATAATCCCTCAATATAAATATCTCTCACTTATTTAAA	0.465	0.465	0.719
ACAGACGAAGGAGCCGCAAATAAGATATTAAGGGATGAATAATCCCTCAATATAAATATCTCTCACTTATTTAAA		1.08	0.738
ACAGACGAAGGAGCCGCAAATAAGCTATTAAGGGATGAATAATCCCTCAATATAAATATCTCTCACTTATTTAAA		0.149	
ACAGACGAAGGAGCCGCAAATAAGTAATTAAGGGATGAATAATCCCTCAATATAAATATCTCTCACTTATTTAAA	0.246	0.339	
ACAGACGAAGGAGCCGCAAATAAGTCATTAAGGGATGAATAATCCCTCAATATAAATATCTCTCACTTATTTAAA		0.28	
ACAGACGAAGGAGCCGCAAATAAGTTAATAAGGGATGAATAATCCCCCAATATAAATATCTCTCACTTATTTAAA	0.208		
ACAGACGAAGGAGCCGCAAATAAGTTAATAAGGGATGAATAATCCCTCAATATAAATATCTCTCACTTATTTAAA	0.247	0.343	
ACAGACGAAGGAGCCGCAAATAAGTTAGTAAGGGATGAATAATCCCTCAATATAAATATCTCTCACTTATTTAAA	0.305	0.549	
ACAGACGAAGGAGCCGCAAATAAGTTATAAAAGGATGAATAATCCCTCAATATAAATATCTCTCACTTATTTAAA		0.211	
ACAGACGAAGGAGCCGCAAATAAGTTATAAAGGGATGAATAATCCCTCAATATAAATATCTCTCACTTATTTAAA	0.337	0.421	
ACAGACGAAGGAGCCGCAAATAAGTTATAAAGGGATGTATAATCCCTCAATATAAATATCTCTCACTTATTTAAA	0.384		
ACAGACGAAGGAGCCGCAAATAAGTTATCAAGGGATGAATAATCCCTCAATATAAATATCTCTCACTTATTTAAA		0.278	
ACAGACGAAGGAGCCGCAAATAAGTTATGAAGGGATGAATAATCCCTCAATATAAATATCTCTCACTTATTTAAA		0.558	
ACAGACGAAGGAGCCGCAAATAAGTTATTAAAGGATGAATAATCCCTCAATATAAATATCTCTCACTTATTTAAA	0.195	0.218	0.19
ACAGACGAAGGAGCCGCAAATAAGTTATTAAAGGATGAATAATCCCTCAATATAGATATCTCTCACTTATTTAAA		0.188	
ACAGACGAAGGAGCCGCAAATAAGTTATTAACGGATGAATAATCCCTCAATATAAATATCTCTCACTTATTTAAA	0.113	0.157	
ACAGACGAAGGAGCCGCAAATAAGTTATTAAGAGATGAATAATCCCTCAATATAAATATCTCTCACTTATTTAAA	0.12	0.13	
ACAGACGAAGGAGCCGCAAATAAGTTATTAAGAGATGAATAATCCCTCAATATAAATATTTCTCACTTATTTAAA		0.124	
ACAGACGAAGGAGCCGCAAATAAGTTATTAAGCGATGAATAATCCCTCAATATAAATATCTCTCACTTATTTAAA		0.134	

Sequence	cleaved RNA product abundance [1]	cleaved RNA product abundance [2]	cleaved RNA product abundance [3]
ACAGACGAAGGAGCCGCAAATAAGTTATTAAGGAATGAATAATCCCTCAATATAAATATCTCTCACTTATTTAAA	0.0785	0.129	
ACAGACGAAGGAGCCGCAAATAAGTTATTAAGGCATGAATAATCCCTCAATATAAATATCTCTCACTTATTTAAA	0.0924	0.0954	
ACAGACGAAGGAGCCGCAAATAAGTTATTAAGGCATGACTAATCCCTCAATATAAATATCTCTCACTTATTTAAA		0.144	
ACAGACGAAGGAGCCGCAAATAAGTTATTAAGGGAAGAATAATCCCTCAATATAAATATCTCTCACTTATTTAAA	0.497	0.366	
ACAGACGAAGGAGCCGCAAATAAGTTATTAAGGGACGAATAATCCCTCAATATAAATATCTCTCACTTATTTAAA	0.65	0.802	
ACAGACGAAGGAGCCGCAAATAAGTTATTAAGGGAGGAATAATCCCTCAATATAAATATCTCTCACTTATTTAAA	0.554	0.469	
ACAGACGAAGGAGCCGCAAATAAGTTATTAAGGGATAAATAATCCCTCAATATAAATATCTCTCACTTATTTAAA		1.03	
ACAGACGAAGGAGCCGCAAATAAGTTATTAAGGGATCAATAATCCCTCAATATAAATATCTCTCACTTATTTAAA		0.721	0.865
ACAGACGAAGGAGCCGCAAATAAGTTATTAAGGGATGAAAAATCCCTCAATATAAATATCTCTCACTTATTTAAA	0.805	0.841	0.882
ACAGACGAAGGAGCCGCAAATAAGTTATTAAGGGATGAACAATCCCTCAATATAAATATCTCTCACTTATTTAAA	0.897	0.924	
ACAGACGAAGGAGCCGCAAATAAGTTATTAAGGGATGAATAAACCCTCAATATAAATATCTCTCACTTATTTAAA		0.39	
ACAGACGAAGGAGCCGCAAATAAGTTATTAAGGGATGAATAACCCCTCAATATAAATATCTCTCACTTATTTAAA	0.582	0.494	
ACAGACGAAGGAGCCGCAAATAAGTTATTAAGGGATGAATAAGCCCTCAATATAAATATCTCTCACTTATTTAAA		0.476	
ACAGACGAAGGAGCCGCAAATAAGTTATTAAGGGATGAATAATACCTCAATATAAATATCTCTCACTTATTTAAA	0.112	0.165	
ACAGACGAAGGAGCCGCAAATAAGTTATTAAGGGATGAATAATCACTCAATATAAATATCTCTCACTTATTTAAA	0.118	0.107	
ACAGACGAAGGAGCCGCAAATAAGTTATTAAGGGATGAATAATCCATCAATATAAATATCTCTCACTTATTTAAA	0.172	0.261	
ACAGACGAAGGAGCCGCAAATAAGTTATTAAGGGATGAATAATCCCACAATATAAATAACTCTCACTTATTTAAA		0.22	
ACAGACGAAGGAGCCGCAAATAAGTTATTAAGGGATGAATAATCCCACAATATAAATATCTCTCACTTATTTAAA	0.233	0.187	
